In patent US20250027068:

Molecular target: pooled human IgG (human IgG1,2,3 and 4)

Protein | Enzyme Activity Endpoint Assay: Fab′2 [ng/µL] | Enzyme Activity Endpoint Assay: Fc [ng/µL] | Enzyme Activity Endpoint Assay: IgG [ng/µL] | Enzyme Activity Endpoint Assay: scIgG [ng/µL] | Enzyme Activity Endpoint Assay: Fab'2 [ng/µL]
PRT-102 (protein) MANQEIRYSEVTPYHVTSVWTKGVTPPAKFTQGEDVFHAPYVANQGWYDITKTFNGKDDLLCGAATAGNMLHWWFDQNKEKIEAYLKKHPDKQKIMFGDQELLDVRKVINTKGDQTNSELFNYFRDKAFPGLSARRIGVMPDLVLDMFINGYYLNVYKTQTTDVNRTYQEKDRRGGIFDAVFTRGDQSKLLTSRHDFKEKNLKEISDLIKQELTEGKALGLSHTYANVRINHVINLWGADFDSNGNLKAIYVTDSDSNASIGMKKYFVGVNSAGKVAISAKEIKEDNIGAQVLGLFTLSTGQDSWNQTN | 607 | 160 | 0 | 0 | 
PRT-105 (protein) MANQEIRYSEVTPYHVTSVWTKGVTPPAKFTQGEDVFHAPYVANQGWYDITKTFNGKDDLLCGAATAGNMLHWWFDQNKEEIEAYLKKHPDKQKIMFGDQELLDVRKVINTKGDQTNSELFNYFRDKAFPGLSARRIGVMPDLVLDMFINGYYLNVYKTQTTDVNRTYQEKDRRGGIFDAVFTRGDQSKLLTSRHDFKEKNLKEISDLIKKELTEGKALGLSHTYANVRINHVINLWGADFDSNGNLKAIYVTDSDSNASIGMKKYFVGVNSAGKVAISAKEIKEDNIGAQVLGLFTLSTGQDSWNQTN | 663 | 192 | 0 | 13 | 
PRT-104 (protein) MANQEIRYSEVTPYHVTSVWTKGVTPPAKFTQGEDVFHAPYVANQGWYDITKTFNGKDDLLCGAATAGNMLHWWFDQNKEKIEAYLKKHPDKQKIMFGDQELLDVRKVINTKGDQTNSELFNYFRDKAFPGLSARRIGVMPDLVLDMFINGYYLNVTKTQTTDVNRTYQEKDRRGGIFDAVFTRGDQSKLLTSRHDFKEKNLKEISDLIKKELTEGKALGLSHTYANVRINHVINLWGADFDSNGNLKAIYVTDSDSNASIGMKKYFVGVNSAGKVAISAKEIKEDNIGAQVLGLFTLSTGQDSWNQTN | 259 | 130 | 0 | 0 | 
PRT-103 (protein) MANQEIRYSEVTPYHVTSVWTKGVTPPAKFTQGEDVFHAPYVANQGWYDITKTFNGKDDLLCGAATAGNMLHWWFDQNKEKIEAYLKKHPDKQKIMFGDQELLDVRKVINTKGSQTNSELFNYFRDKAFPGLSARRIGVMPDLVLDMFINGYYLNVYKTQTTDVNRTYQEKDRRGGIFDAVFTRGDQSKLLTSRHDFKEKNLKEISDLIKKELTEGKALGLSHTYANVRINHVINLWGADFDSNGNLKAIYVTDSDSNASIGMKKYFVGVNSAGKVAISAKEIKEDNIGAQVLGLFTLSTGQDSWNQTN | 544 | 158 | 0 | 0 | 
PRT-106 (protein) MRNATEAYAKEVPHQITSVWTKGVTPLTPEQFRYNNEDVIHAPYLAHQGWYDITKTFNGKDNLLCGAATAGNMLHWWFDQNKTEIEAYLSKHPEKQKIIFNNQELFDLKAAIDTKDSQTNSQLFNYFRDKAFPNLSARQLGVMPDLVLDMFINGYYLNVFKTQSTDVNRPYQDKDKRGGIFDAVFTRGDQTTLLTARHDLKNKGLNDISTLIKQELTEGRALALSHTYANVSISHVINLWGADFNAEGNLEAIYVTDSDANASIGMKKYFVGINASGKVAISAKKIEGENIGAQVLGLFTLSSGKDIWQKLS | 739 | 202 | 0 | 0 | 
PRT-110 (protein) MRNATEAYAKEVPHQITSVWTKGVTPPTPEQFRYNNEDVFHAPYTAHQGWYDITKTFDGKDNLLCGAATAGNMLHWWFDQNKTEIEAYLSKHPEKQKIIFNNQELFDLKAAIDTKDSQTNSALFNYFRDKAFPNLSARQLGVMPDLVLDMFINGYYLNVFKTQSTDVNRPYQDKDKRGGIFDAVFTRGDQTTLLTARHDLKNKTLNDISTIIKQELTEGRALALSHTYANVSISHVINLWGADFNAEGNLEAIYVTDSDSNASIGMKKYFVGVNASGKVAISAKKIEGENIGAQVLGLFTLSSGKDIWQKLS | 575 | 136 | 0 | 0 | 
PRT-109 (protein) MRNATEAYAKEVPHTITSVWTKGVTPLTPEQFRYNNEDVIHAPYVAHQGWYDITKTFDGKDNLLCGAATAGNMLHWWFDQNKTEIEAYLSKHPEKQKIIFNNQELFDLKAAIDTKDSQTNSQLFNYFRDKAFPNLSARQLGVMPDLVLDMFINGYYLNVFKTQSTDVNRPYQDKDKRGGIFDAVFTRGDQTTLLTARHDLKNKGLNEISTLIKQELTEGKALALSHTYANVSISHVINLWGADFNAEGNLEAIYVTDSDDNASIGMKKYFVGVNAAGKVAISAKKIEGENIGAQVLGLFTLSSGKDIWQKLS | 457 | 181 | 28 | 0 | 
PRT-108 (protein) MRNATEAYAKEVPHQITSVWTKGVTPPTPEQFRYNNEDVIHAPYTAHQGWYDITKTFDGKDNLLCGAATAGNMLHWWFDQNKTEIEAYLSKHPEKQKIIFNNQELFDLKAAIDTKDSQTNSQLFNYFRDKAFPNLSARQLGVMPDLVLDMFINGYYLNVFKTQSTDVNRPYQDKDKRGGIFDAVFTRGDQTTLLTARHDLKNKGLNDISTLIKQELTEGRALALSHTYANVSISHVINLWGADFNAEGNLEAIYVTDSDANASIGMKKYFVGINAAGHVAISAKKIEGENIGAQVLGLFTLSSGKDIWQKLS | 666 | 203 | 0 | 0 | 
PRT-107 (protein) MRNATEAYAKEVPHQITSVWTKGVTPLTPEQFRYNNEDVIHAPYLANQGWYDITKAFDGKDNLLCGAATAGNMLHWWFDQNKTEIEAYLSKHPEKQKIIFNNQELFDLKAAIDTKDSQTNSQLFNYFRDKAFPNLSARQLGVMPDLVLDMFINGYYLNVFKTQSTDVNRPYQTKDKRGGIFDAVFTRGDQTTLLTARHDLKNKGLNDISTIIKQELTEGKALALSHTYANVSISHVINLWGADFNAEGNLEAIYVTDSDANASIGMKKYFVGVNAAGHVAISAKKIEGENIGAQVLGLFTLSSGKDIWQKLS | 553 | 200 | 0 | 117 | 
PRT-167 (protein) MANQEIRYSEVTPYHVTSVWTKGVTPPTDFTQGEDVFHAPYKANQGWYDITKTFNGKDDLLCGAATAGNMLHWWFDQNKDQIKRYLEEHPEKQKINFNGEQMFDVKEAIDTKNSQLDSKLFEYFKEKAFPYLSTKHLGVFPDHVIDMFINGYRLSLTNHGPTPVKEGSKDPRGGIFDAVFTRGDQSKLLTSRHDFKEKNLKEISDLIKKELTEGKALGLSHTYANVRINHVINLWGADFDSNGNLKAIYVTDSDSNASIGMKKYFVGVNSAGKVAISAKEIKEDNIGAQVLGLFTLSTGQDSWNQTN |  | 161 | 0 | 0 | 572
